Experiment: label from the status in PepcDB records

| Sequence | protein production |
| --- | --- |
| MNNVSTRAPVRGTKTSLTLPNILTYARIAAIPVVVGCIFAQSILGGPLALRWVALAVFIAAAITDFLDGHFARIWDQQSAFGRMLDPIADKLLVASCLLMLAADSIIHGWTLWAAIVILCREILVSGLREYLAALRVSVPVTRLAKWKTTAQLVAIGFLLAGEAGDEVLPFTTEIGVSLLWLSALLTMYTGYDYFRAGIHHLIEEDQA | failed |
| MNPADVTQLAPAVSTDVSLLSLFWHAHWVVKSIMLGLLGCSVWVWAIAIDKLLLFSRTKRAMDRFEQAFWSGESIDELYRALSAKPTHSMAACFVAAMREWKRSFESHSRSFAGLQMRIEKVMNVSIAREVERLERRLLVLATVGSAGPFVGLFGTVWGIMSSFQSIAASKNTSLAVVAPGIAEALFATAIGLIAAIPATIFYNKFTSEVNRQTQRLEGFADEFSAILSRQIDERT | failed |
| MNPALVALGLTLFAGMATGIGSAIAFFARRTNFRFLSVATGFSAGVMVYVSFVEILPKGLDSLVRSCGESWGHWLNAASFFGGMLCIGLIDAVIPAAKNPHEIHADHEIAPLHDRSAPLPDFGSLAADPRCAPTGTHDHRPPQRHLLRMGLFTALAITIHNFPEGMATFLAALESPRVGAAIAVAIALHNIPEGVSVSVPIFYATGNRRKAFALSLLSGMAEPVGAAIGYLALLLFSGGASGAIPDQVTGALFGGVAGIMVYISLDELLPASRAYGKGHDSLLGLVGGMAVMALSLLLMK | failed |
| MNPCGIQRYQTQMYTQVSYDFRLSWSSGKRSASGFEAVGGAKMAEEKLGMKTQVPASIESQKPRPKKAPEFPIVEKLNWLIHLYYIRKDYEACKAVIKEQLQETQGLCEYAIYVQALIFRLEGNIQESLELFQTCAVLSPQCADNLKQVARSLFLLGKHKAATEVYNEAAKLNQKDWEICHNLGVCYTYLKQFSKAQDQLHSALQLNKHDLTYIMLGKIHLLQGDLDKAIEIYKKAVEFSPENTELLTTLGLLYLQLGVYQKAFEHLGNALTYDPANYKAILAAGSMMQTHGDFDVALTKYRVVACAIPESPPLWNNIGMCFFGKKKYVAAISCLKRANYLAPFDWKILYNLGLVHLTMQQYASAFHFLSAAINFQPKMGELYMLLAVALTNLEDIENAKRAYVEAVRLDKCNPLVNLNYAVLLYNQGEKKGALAQYQEMEKKVHFLKDNNPLEFDSEMVEMAQKLGAALQVGEALVWTKPVKDPKSKHRTNSGSKSATLQQPLGSFQALGQAMSSAAAHRKIPSGAVGAQLTKPPSLPLEPEPEPTVEASPTEASEQNKEK | failed |
| MNPFKNFETRQVLEETCEVHGCQLWLTKVPIKGRLEELKQCPECTKAAINIFENKLNSQSKINSKLADTYAVFERDSLVSDKLRAKSLENYEIKDEIDQHAINYAKRMEQFYRQDRTGNAIITGPSGVGKSHLTYGLAKFMNEQFKAYESPKSVLFISLVSLFTKIKESFKVDNGYRQADMIELLTRVDYLFLDDLGKESRKGDSQNNEWTHQILYEILDNRSNTIINTNLSSKEIKALYADNYGNGALSSRILEGVTGNSFAYPKDMEDRRY | failed |
| MNPLHLAAAFASGCLLTLMVHFNGQLAHYGNALFSSWTAHGTGTVAALIYLAIMRPKKDAAAPAKPNAPLWAYCGGVVGAAIVILTSTAVNSPLALSGTIALGLGGQVIFSLLADLFGLFGLPKRRPDVQDMVAVCLILCGSALIILVGRAA | failed |
| MNPTFHADKPIYSQISDWMKKQMITGEWKGEDKLPSVREMGVKLAVNPNTVSRAYQELERAGYIYAKRGMGSFVTSDKALFDQLKKELADAITERFLEEAKSIGLDDQTAIELLIKRSRNHE | not failed |
| MNQHLLGNPKLTVTHVNEVKAGINHIVVDSVQYGNQEMIMEKDGTVEMRDGEKLYINIFRPNKDGKFPVVMSADTYGKDNKPKITNMGALWPTLGTIPTSSFTPEESPDPGFWVPNDYVVVKVALRGSDKSKGVLSPWSKREAEDYYEVIEWAANQSWSNGNIGTNGVSYLAVTQWWVASLNPPHLKAMIPWEGLNDMYREVAFHGGIPDTGFYRFWTQGIFARWTDNPNIEDLIQAQQEHPLFDDFWKQRQVPLSQIKTPLLTCASWSTQGLHNRGSFEGFKQAASEEKWLYVHGRKEWESYYARENLERQKSFFDFYLKEENNDWKDTPHVIYEVRDQFYKGEFKSASAFPLPNAEYTPLYLNAENHTLNHAKISSAHVAQYDSEDKQQDVSFKYTFDKDTELVGNMNLKLWVSTKDSDDMDLFAGIKKLDRRGNEVNFPDFNHIENGQVATGWLRVSHRELDQEKSSIAQPWHKHETELKLSQDEIVPVEIELLPSGTLFKQGETLEVVVKGSEIVIGNSTPGMKTRYEHEETVNKGMHMIYTGGKYDSQLIIPIVN | not failed |
| MNQIAPRRFSGLRIVLLVLLAVLAFLLLMPTRVQPVAWNPAPAPSLSQGPFAENQKLKAVQPVGARDIDGPEALLLEHEQLLSGLHDGRVIQSSLDGSALKVLVNTGGRPLGLARHPDGRLIIADAIKGLLALDSQGQLQTLSTEANGLKFGFTDDVAVDAAGRYAYFSDATSRWGYGHDGEAVIEHGADGRLLRYDFQSGTTEVLLDRLEFANGIALGPDEAYVLVNETGAYRISRYWLKGDKAGSHDLFIDNLPGLPDNLSFNGAGRFWVALYAPRNPLLDATAPYPFVRKMLVRAMTVLPKPVEKRGFVLGLDTQGRVIANLQDGSSGNYSPITTVREYGDALYLGSLTARHMARLSLKEALAP | failed |
| MNQKISPPSQKLDGLFLLALSMAVFFVGVTEFMLSSMLGPLAQAFHTTTSGAAWLISSYAFSYAIAAPLLGYFSDRMQRRKLLLLALVLFAVDTLAIVIAPTLEIAVVLRVIGGIASAIIIPTTFALVAEVVAPQRQAGAMGQVMLGMTLGIAAGPALAGLLSDFFGWAAPFLLVSCGCVLVFLMARQRLPVQAVAPRAEGHALGWCRQWSILRPLIAKGAWNGTGVAGLLLSGEVLRQRYGFSTAQIGVSIAAFGVGLAVGNLAAGYLRRYLKRDEDMLLLVLALLVLSMSTFMLLPLPLPVALCCLGAWGAALGLGAPAGTVVLASRSGPDKGMVLSFAETFNNIAILASVPLAVRLLELKGPPATLWVLGIGLGIGAWFTVLDWFASRRSNEALPLRD | failed |
| MNQKMIIGNAEAICLPELGITHLEARIDTGAQTSSLHVDNIDCFEKDGQSYVAFDLHPDVYHLEQVVRCTAKLKANRKVKSSNGTFEHRCVITTMLRLGDQEWPIDITLTNREKMTYMMLLGRQGMADKVLVDPSQSHLLAS | not failed |
| MNQLIFDFAAHDYPSFDKFLGTENAELVYVLRHKHGQFIYVWGEEGAGKSHLLQAWVAQALEAGKNAAYIDAASMPLTDAAFEAEYLAVDQVEKLGNEEQALLFSIFNRFRNSGKGFLLLGSEYTPQQLVIREDLRTRMAYCLVYEVKPLTDQEKIDALASMAAARQVTVDSEIFEYLLKHWRRDMDSLMMMLDTLDNYAVTMGKRITLPLLRQLLKQQETQLEHHHHHH | not failed |
| MNQSPSILRKTRKGEYMAFADLAAEKTQGVDYDFLVLDRASAVAIVAPHGGWIEHGTSELATAVAGDDFSLYLFEGLKPKRPHSELHIPSEYFDENRCVDLVSRARIVIGMHGRADGDDPETIWLGGLGKELRDAIAAALEAAGFKAITSGHRLPGEHKNNICNRGINQAGVQLEPCRWSNRCLSATETHSTSATTAIISRLSIAA | failed |
| MNQTSSHSSLFSSSLPPVPDRPLSPSGRFNRLSYLAWYGFINLIGLMCLFGTGLIMGIFSLSQVTWDDQLLNALSGSFGFIMFGISILFFYFHVVLMIRRLHDTNRSGWWCLLFFVPVIQFILILYLLFIPGSKASNDYGIPRPSPVWEKILGWMIVIVLLLSLLMLGRLVSFMLGTGHLDFPQELIPKNTGYF | failed |
| MNQVEMTEFPVGKPQEALYGVASTPDGALWFTLAKGNAIGRLSPDGAVSRFPLPHADGQPTTITCGPDGRPWFTLSSANAIGRLAPDGALRMFELPRPASRPFGIAGGHDGCLWFAEMAGDRIGRITIDGDIEEYDLPVKGGYPSCMAAGRDGLMWFTLNQAGAVGSISATAAPRIFPLGAADAAPVGIASDAQGALWIAQAGNGAIARFDAGGRITEFPLHSRAARPHAIAADAAGNLWFTEWGANRIGRISEAGDLAGYELAAPGSEPHGIAIDPHGCVWAALETGRLVRLQASPRDLEHHHHHH | failed |
| MNRARIIVAGIGPGGASDITPAVLSAIGRSDVVVGYKYYFRFIEPYLRPDTHCVDTGMKKERQRAEEAFGYALSGKTVCVISSGDAGIYGMAPLIYEMKRAKGVEMDIEVLPGISAFQKAASLLGAPIGHDLCLISLSDLMTPWPIIEKRIVAAASADFVTAIYNPKSEGRYWQLYRFVEIFMQYRSADTPVGLVRQAGREEEQVTVTTLGEFDPEVVDMFTVVLVGNSQSYCYEGHFITPRGYYPEEEIEAKGIGQEIMIKSFRTIEKELHRQDWPLDHKWALLHAIHTTADFDMENILYTDAGAVASLYEMIEAGRLRTIVTDVTMVTSGIRKGALERLGVEAKCYLHDPRVAELAARHGITRTQAGIRLAVEEHPDALFAFGNAPTALQELADLIRRGKASPAGIIAAPVGFVHVQESKHAVKPFRSIPKIIVEGRKGGSNLAATLVNAILCYNDAEQLRPGRDV | failed |
| MNRIEHYHDWLRDAHAMEKQAESMLESMASRIDNYPELRARIEQHLSETKNQIVQLETILDRNDISRSVIKDSMSKMAALGQSIGGIFPSDEIVKGSISGYVFEQFEIACYTSLLAAAKNAGDTASIPTIEAILNEEKHMADWLIQHIPQTTEKFLIRSETDGVEAKK | not failed |
| MNRIKAVGYENNELKEKAQLLADQLNLQLDQNADTCLFVTPEKLTLKIRNFSLMFADFSAMTWSKRRGEGKRQGLIRACKPTKGIKILDATAGWGKDAAILATFGADVVMLERHPVMAALLADALSRRNEADIQKMCLSLIASDAISFLHSLQEKDYPDIIYIDPMHPERNKSALVKKEMQVLQQLIGTDHDAMELIELSLSHVKSRVVVKWPQKVKPLLPPDASIDGKTVRFDIYMAQFSSN | failed |
| MNRNGLLIALALFAGIGLTFGLFPGLDLWLAGLFYDTAAKTFPMRSMPDLEFARDFAMWVAWAIAAPSIFALVYKMIRPDRPLVMPGRTVAFLLISITLSAGVLTNMTFKSHWGRPRPAAVTEFNGPWQFKAWWDNSGACPKNCSFFSGEGATAYWTFAPAALTPPAVRPYAYAAAFTFGTVTSGLRMAFGGHFFTDVAIAGLVTFLVIWLLYALIYRWAWSRTSDEAIDAALTRAFWPLYRLRLKKWRGQDIGPAPAA | failed |
| MNRNGQRRFLEFFAGGGMARLGLGADWACAFANDFDPVKAATYRANFADAGKHFQEGDVFALSAERLPDADLAWASSPCQDFSLAGARAGLAGGRSSAFFGFWSLMRSLSAEGRAPSVIVIENVVGLLTSHGGADFTALCQALHEEGYRFGALEIDAGAFVPQSRPRVFVVATRNPPGDLVGSSAFHTRAVREAAARLPADLQASWVWWGAPSPPARNTDLASMLEPDDRAVW | failed |
| MNRNLLLLLCSLFCFIAIGKPSDFPPVPNPPKLINDFAGMLSPAEVAELERKVNTFNDSTSIEISVVIITNLGDYDIAEYAFQLGALWGIGKDKKDNGVLLLISKENRKAFIATGYGMEGVLPDARCKRIIQAELIPQFKRSNYFNGINFTIDAIMRYSKNEYTADPVAANANRIKPAYVLLFIIGVIILVSFLNRNNNSGSNRGGNNGGYGSGGGGLLGGLLGGAIGSGYRGRSYGGGFGSGSSGGGFGGFGGGGFGGGGAGGDW | failed |
| MNRNRLPALTPGLAWSRPMNGAVDHKGYEQPTYDLEFAETATEIRRYGPYLVAEVTMAGDRSTAITRGFRVLARYIFGGNAESRRIEMTVPVSQLPAGEDLWTVRFTMPAVRSASLLPAPKDSRIRFVTVPPSRQAVRRFSGWPTDHALRRQAEGLAHWIAERGLPKREGPYFYFYDSPMTLPWQRRNEVAFGLGEGLEHHHHHH | not failed |

From a protein production outcome set (Wang et al. 2014)
